The target in this assay is T1, Stt3p (yeast (endogenous), UniProt P39007 1-718, N-glycan at N539).
T1 sequence (looked up): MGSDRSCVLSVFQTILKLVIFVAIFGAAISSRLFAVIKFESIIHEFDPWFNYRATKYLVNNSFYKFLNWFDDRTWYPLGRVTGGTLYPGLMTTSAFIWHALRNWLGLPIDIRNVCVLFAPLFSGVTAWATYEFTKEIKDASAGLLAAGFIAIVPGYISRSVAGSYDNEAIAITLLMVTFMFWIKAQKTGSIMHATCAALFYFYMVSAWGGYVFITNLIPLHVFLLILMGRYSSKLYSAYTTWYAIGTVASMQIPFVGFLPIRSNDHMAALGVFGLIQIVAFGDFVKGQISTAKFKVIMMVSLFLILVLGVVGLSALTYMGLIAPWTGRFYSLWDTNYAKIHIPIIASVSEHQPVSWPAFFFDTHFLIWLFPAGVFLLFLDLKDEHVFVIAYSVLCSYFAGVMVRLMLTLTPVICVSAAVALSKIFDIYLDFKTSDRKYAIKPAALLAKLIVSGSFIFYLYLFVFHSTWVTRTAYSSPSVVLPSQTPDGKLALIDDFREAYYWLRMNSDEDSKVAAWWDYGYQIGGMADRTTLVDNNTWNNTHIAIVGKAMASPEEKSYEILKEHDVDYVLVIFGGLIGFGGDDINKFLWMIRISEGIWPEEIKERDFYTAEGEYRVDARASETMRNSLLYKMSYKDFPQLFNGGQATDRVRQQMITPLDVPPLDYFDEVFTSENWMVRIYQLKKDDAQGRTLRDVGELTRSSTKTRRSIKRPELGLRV
Kind of assay: cryo-EM structure.

B1: Ost6p (natural protein, yeast, UniProt Q03723 25-332, looked up)
chain: TASHNIDDILQLKDDTGVITVTADNYPLLSRGVPGYFNILYITMRGTNSNGMSCQLCHDFEKTYHAVADVIRSQAPQSLNLFFTVDVNEVPQLVKDLKLQNVPHLVVYPPAESNKQSQFEWKTSPFYQYSLVPENAENTLQFGDFLAKILNISITVPQAFNVQEFVYYFVACMVVFIFIKKVILPKVTNKWKLFSMILSLGILLPSITGYKFVEMNAIPFIARDAKNRIMYFSGGSGWQFGIEIFSVSLMYIVMSALSVLLIYVPKISCVSEKMRGLLSSFLACVLFYFFSYFISCYLIKNPGYPIVF
On to B1, for which the binding result is given as “binds”.

Values taken from paper doi:10.1101/2021.05.17.443621 (bioRxiv, 2021).
